Results reported in patent US20210395381A1 (OSSIANIX, published 2021).

Columns and labels:
[1] = target: T1, recombinant human TfR-1 (human, UniProt P02786 89-760); assay: ELISA titration, large-scale purified VNAR-hFc
T1 construct: extracellular domain; also called hTfR1; human transferrin receptor-1
T1 sequence (P02786 89-760): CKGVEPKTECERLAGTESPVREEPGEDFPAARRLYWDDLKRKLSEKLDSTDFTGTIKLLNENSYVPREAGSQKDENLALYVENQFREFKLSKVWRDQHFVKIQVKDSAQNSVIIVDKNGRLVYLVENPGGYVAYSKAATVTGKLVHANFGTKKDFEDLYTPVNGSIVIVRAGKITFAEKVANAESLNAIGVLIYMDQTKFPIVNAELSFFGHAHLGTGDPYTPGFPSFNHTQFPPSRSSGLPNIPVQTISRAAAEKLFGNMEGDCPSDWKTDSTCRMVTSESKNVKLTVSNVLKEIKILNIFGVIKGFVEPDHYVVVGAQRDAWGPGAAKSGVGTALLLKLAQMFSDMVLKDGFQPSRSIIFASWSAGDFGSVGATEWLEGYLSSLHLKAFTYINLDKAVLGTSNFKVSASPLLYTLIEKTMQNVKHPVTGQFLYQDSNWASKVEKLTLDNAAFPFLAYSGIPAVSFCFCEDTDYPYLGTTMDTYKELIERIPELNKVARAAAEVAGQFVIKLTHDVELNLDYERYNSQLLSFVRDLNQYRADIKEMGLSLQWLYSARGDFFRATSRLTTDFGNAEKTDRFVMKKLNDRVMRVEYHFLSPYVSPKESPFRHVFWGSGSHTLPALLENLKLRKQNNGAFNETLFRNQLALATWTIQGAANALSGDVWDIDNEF

[2] = target: T2, recombinant mouse TfR-1 (mouse, UniProt Q62351 89-763); assay: ELISA titration, large-scale purified VNAR-hFc
T2 construct: Bought recombinant protein; also called mTfR1
T2 sequence (Q62351 89-763 limits assumed): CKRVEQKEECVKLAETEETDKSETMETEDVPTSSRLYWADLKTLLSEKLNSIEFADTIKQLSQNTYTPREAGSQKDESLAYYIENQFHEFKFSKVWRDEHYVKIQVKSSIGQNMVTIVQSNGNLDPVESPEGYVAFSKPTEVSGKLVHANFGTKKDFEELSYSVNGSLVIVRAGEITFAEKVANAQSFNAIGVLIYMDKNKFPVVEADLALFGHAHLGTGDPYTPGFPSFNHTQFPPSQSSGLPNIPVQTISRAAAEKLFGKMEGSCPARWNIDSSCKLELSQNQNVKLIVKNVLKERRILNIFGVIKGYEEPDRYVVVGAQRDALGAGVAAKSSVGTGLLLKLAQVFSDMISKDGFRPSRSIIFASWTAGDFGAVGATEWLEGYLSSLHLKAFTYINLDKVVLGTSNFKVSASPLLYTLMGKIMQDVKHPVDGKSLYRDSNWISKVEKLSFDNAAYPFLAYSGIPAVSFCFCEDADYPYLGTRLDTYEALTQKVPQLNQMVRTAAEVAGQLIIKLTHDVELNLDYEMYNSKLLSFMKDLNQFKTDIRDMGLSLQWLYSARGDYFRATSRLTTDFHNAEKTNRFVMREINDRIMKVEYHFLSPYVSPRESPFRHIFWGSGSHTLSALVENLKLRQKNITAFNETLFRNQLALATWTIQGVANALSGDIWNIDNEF

[3] = target: T1, recombinant human TfR-1; assay: phage ELISA
Description: (§1) After the third round of selection, instead of pooling bacterial colonies, individual phagemid clones were grown in 1 ml of 2TY medium containing glucose and ampicillin in 96-well blocks and used to rescue the phages. After an overnight culturing, bacteria were spun down and an aliquot of the phage supernatant was sent for Sanger sequencing (Genewiz); VNAR CDR3 sequences were identified using BioEdit (a sequence alignment editor). Another aliquot was blocked with 2.5% milk for phage ELISAs. High-binding ELISA plates (Greiner) were coated with 1 μg/ml of recombinant human or mouse TfR-1. The plates were then blocked with 2.5% milk in PBST. Blocked phages were added to the blocked plates and the VNAR-phage clones binding to the antigens were detected with HRP-labelled anti-M13 coat protein antibodies (Sino Biological), and chromogenic TMB substrate (KLM)

[4] = target: T2, recombinant mouse TfR-1; assay: phage ELISA
Description: as §1

[5] = target: T3, recombinant mouse TfR-1 (mouse, UniProt Q62351 89-763); assay: phage ELISA, VNAR-phage on plate-coated recombinant mouse TfR-1
T3 construct: Coated at 1 ug/ml for the phage ELISA; also called mTfR1; mouse transferrin receptor-1
T3 sequence (Q62351 89-763 limits assumed): as above

[6] = target: T4, recombinant human TfR-1 (human, UniProt P02786 89-760); assay: phage ELISA, VNAR-phage on plate-coated recombinant human TfR-1
T4 construct: also called hTfR1; human transferrin receptor-1
T4 sequence (P02786 89-760 limits assumed): as the sequence (P02786 89-760) above

Binder	phage ELISA A450 [5] [A450]	phage ELISA A450 [6] [A450]	further results
Clone 8.5 VNAR-hFc fusion (Fc fusion, human, not shown: small tags and cut ends, domain: Fc (CH2 and CH3); also called the variant) chain (part 1 of 2): ARVDQTPQTITKETGESLTINCVLRDSNCALPSTYWYRKKSGSTNEESISKGGRYVETVNSGSKSFSLRINDLTVEDSGTYRCKVIAQLGWWLRGCNYRKHDVYGDGTAVTVNA chain (part 2 of 2): DKTHTCPPCPAPPVAGPSVFLFPPKPKDTLMISRTPEVTCVVVDVSHEDPEVKFNWYVDGVEVHNAKTKPREEQYNSTYRVVSVLTVLHQDWLNGKEYKCKVSNKGLPSSIEKTISKAKGQPREPQVYTLPPSRDELTKNQVSLTCLVKGFYPSDIAVEWESNGQPENNYKTTPPVLDSDGSFFLYSKLTVDKSRWQQGNVFSCSVMHEALHNHYTQKSLSLSPGK			EC50 [1]: 27 nM; fold difference of EC50 against parental Clone 8 [1]: > 25 fold; EC50 [2]: 47 nM; fold difference of EC50 against parental Clone 8 [2]: > 25 fold
Clone 7 (VNAR, VNAR on phage) VNAR: ARVDQTPQTITKETGESLTINCVLRDNNCALSSTLWYRTKSGSRNEESISKGGRYVETVNSGSKSFSLRINDLTVEDSGTYRCNVQSWPPGNGWWCDVYGDGTAVTVNA			binding result [3]: binds; binding result [4]: binds
Clone 9 (VNAR, VNAR on phage) VNAR: ARVDQTPQTITKETGESLTINCVLRDSNCALPSTWYRKKSDSTNEESISKGGRYVETVNSGSKSFSLRINDLTVKDSGTYRCKVLYPNCYRCMWGQVTDVYGGGTAVTVNA			binding result [3]: binds; binding result [4]: binds
Clone 8.149 (VNAR) VNAR: ARVDQTPQTITKETGESLTINCVLRDSNCALPSTYWYRKKSGSTNEESISKGGRYVETVNSGSKSFSLRINDLTVEDSGTYRCKVIAQLSSILRGCNYHPHDVYGDGTAVTVNA	0.045	0.052	
Clone 8.150 (VNAR) VNAR: ARVDQTPQTITKETGESLTINCVLRDSNCALPSTYWYRKKSGSTNEESISKGGRYVETVNSGSKSFSLRINDLTVEDSGTYRCKVIAQLSSILRGCNYNQQDVYGDGTAVTVNA	0.045	0.058	
Clone 8.151 (VNAR) VNAR: ARVDQTPQTITKETGESLTINCVLRDSNCALPSTYWYRKKSGSTNEESISKGGRYVETVNSGSKSFSLRINDLTVEDSGTYRCKVIAQLSSLERGCNYFQFDVYGDGTAVTVNA	0.045	0.048	
Clone 8.152 (VNAR) VNAR: ARVDQTPQTITKETGESLTINCVLRDSNCALPSTYWYRKKSGSTNEESISKGGRYVETVNSGSKSFSLRINDLTVEDSGTYRCKVMDQLSNMLRGCNYRKHDVYGDGTAVTVNA	0.045	0.059	
Clone 8.153 (VNAR) VNAR: ARVDQTPQTITKETGESLTINCVLRDSNCALPSTYWYRKKSGSTNEESISKGGRYVETVNSGSKSFSLRINDLTVEDSGTYRCKVIAQLAFGLRGCNYRKHDVYGDGTAVTVNA	0.044	0.048	
Clone 8.154 (VNAR) VNAR: ARVDQTPQTITKETGESLTINCVLRDSNCALPSTYWYRKKSGSTNEESISKGGRYVETVNSGSKSFSLRINDLTVEDSGTYRCKVIAQLSSILRGCGGSKHDVYGDGTAVTVNA	0.044	0.055	
Clone 8.155 (VNAR) VNAR: ARVDQTPQTITKETGESLTINCVLRDSNCALPSTYWYRKKSGSTNEESISKGGRYVETVNSGSKSFSLRINDLTVEDSGTYRCKVIAQLSSILRGCNYKIADVYGDGTAVTVNA	0.044	0.053	
Clone 8.156 (VNAR) VNAR: ARVDQTPQTITKETGESLTINCVLRDSNCALPSTYWYRKKSGSTNEESISKGGRYVETVNSGSKSFSLRINDLTVEDSGTYRCKVIAQLSSQSVGCNYRKHDVYGDGTAVTVNA	0.044	0.062	
Clone 8.157 (VNAR) VNAR: ARVDQTPQTITKETGESLTINCVLRDSNCALPSTYWYRKKSGSTNEESISKGGRYVETVNSGSKSFSLRINDLTVEDSGTYRCKVIAYRKSIVRGCNYRKHDVYGDGTAVTVNA	0.044	0.048	
Clone 8.158 (VNAR) VNAR: ARVDQTPQTITKETGESLTINCVLRDSNCALPSTYWYRKKSGSTNEESISKGGRYVETVNSGSKSFSLRINDLTVEDSGTYRCKVIAQLNVILRGCNYRKHDVYGDGTAVTVNA	0.043	0.046	
Clone 8.159 (VNAR) VNAR: ARVDQTPQTITKETGESLTINCVLRDSNCALPSTYWYRKKSGSTNEESISKGGRYVETVNSGSKSFSLRINDLTVEDSGTYRCKVIAQLSSDGQGCNYRKHDVYGDGTAVTVNA	0.043	0.057	
Clone 8.160 (VNAR) VNAR: ARVDQTPQTITKETGESLTINCVLRDSNCALPSTYWYRKKSGSTNEESISKGGRYVETVNSGSKSFSLRINDLTVEDSGTYRCKVIAQLSSILRGCFPQKHDVYGDGTAVTVNA	0.043	0.049	
Clone 8.161 (VNAR) VNAR: ARVDQTPQTITKETGESLTINCVLRDSNCALPSTYWYRKKSGSTNEESISKGGRYVETVNSGSKSFSLRINDLTVEDSGTYRCKVIAQLSSILRGCIAGKHDVYGDGTAVTVNA	0.043	0.048	
Clone 8.162 (VNAR) VNAR: ARVDQTPQTITKETGESLTINCVLRDSNCALPSTYWYRKKSGSTNEESISKGGRYVETVNSGSKSFSLRINDLTVEDSGTYRCKVIAQLSSNRNGCNYRKHDVYGDGTAVTVNA	0.042	0.055	
